In experiment [1] the target is T1, 人DLL4抗原 (human, UniProt Q9NR61 27-524, limits assumed).
T1 construct: also called Delta like 4
The experiment can be described thus: ELISA, DLL4 antigen coated at 1 μg/mL, antibody titrated 0-1000 nM, HRP secondary, OD450-OD630. For orientation: ELISA stands for enzyme-linked immunosorbent assay.

Experiment [2] has as its target T1, 人DLL4抗原. Briefly: ELISA, DLL4 antigen coated at 1 μg/mL, conjugate titrated 0-1000 nM, HRP secondary, OD450-OD630.

Where a chain is given by its changes, count along the chain named. Numbers in names are those of the source.

T1 sequence (Q9NR61 27-524 limits assumed): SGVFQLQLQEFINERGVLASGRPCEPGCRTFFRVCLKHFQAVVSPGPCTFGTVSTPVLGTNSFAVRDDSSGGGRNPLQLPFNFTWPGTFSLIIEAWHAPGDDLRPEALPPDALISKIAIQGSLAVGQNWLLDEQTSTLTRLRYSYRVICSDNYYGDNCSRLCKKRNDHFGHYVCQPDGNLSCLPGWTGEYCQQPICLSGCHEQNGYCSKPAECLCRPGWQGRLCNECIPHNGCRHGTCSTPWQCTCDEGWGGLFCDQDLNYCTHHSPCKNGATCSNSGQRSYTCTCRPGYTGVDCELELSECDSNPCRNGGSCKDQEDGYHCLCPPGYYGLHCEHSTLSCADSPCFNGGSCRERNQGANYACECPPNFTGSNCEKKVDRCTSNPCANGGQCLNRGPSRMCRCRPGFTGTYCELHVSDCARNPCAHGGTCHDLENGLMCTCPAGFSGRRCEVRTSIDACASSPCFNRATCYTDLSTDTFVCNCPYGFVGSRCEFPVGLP

B1: 抗人DLL4人源化抗体H3L2 (antibody)
heavy: not shown
light: EIVITQSPDFQSVTPKEKVTITCSVSSSISSSYLHWYQQKPDQSPKPWIYGTSNLASGVPSRFSGSGSGTDYTLTINSLEAEDAATYYCQQWSSSPLTFGQGTKLEIKVDTVAAPSVFIFPPSDEQLKSGTASVVCLLNNFYPREAKVQWKVDNALQSGNSQESVTEQDSKDSTYSLSSTLTLSKADYEKHKVYACEVTHQGLSSPVTKSFNRGEC
notes: IgG1 humanized antibody; also called 裸抗
The term EC50 denotes the concentration giving half of the maximal effect. A low value points to a more potent agent. B1 yielded an EC50 with 人DLL4抗原 [1] of 49.2 nM.

B2: 抗人DLL4人源化抗体THL4与美登素生物碱DM1的偶联物HLmD4 (THL4-mpeo-DM1) (antibody, human IgG1, kappa, DAR 3.96)
heavy: not shown
light: B1 light with V207C
modifications: DM1 coupled through the BMPEO linker (mpeo-DM1) to the engineered Cys at light chain position 207 (V207C); DM1 coupled through the BMPEO linker (mpeo-DM1) to the engineered Cys at heavy chain position 121 (K121C)
notes: Antibody-drug conjugate of the IgG1 antibody THL4 (H3L2 with light chain V207C and heavy chain K121C) with DM1; average DAR 3.96 by HPLC; also called 抗体药物偶联物HLmD4
As for B2, the EC50 with 人DLL4抗原 [2] was 42.6 nM. That is a double-digit nanomolar value.

These data come from patent CN111494645A (UNIV CHINA PHARMA, dated 2020).
